Data on six molecules can be found in PMC4117581, “Strain-Specific Variation of the Decorin-Binding Adhesin DbpA Influences the Tissue Tropism of the Lyme Disease Spirochete” (PLoS Pathogens, 2014).

The term Kd denotes the free concentration of one partner at which half of the binding sites on the other are occupied at equilibrium, for simple one-to-one binding. Usually koff stands for a measure of how fast the partners let go of each other. Usually kon stands for a measure of how fast the partners come together.

In assay [1] the target is Recombinant human decorin (human) (UniProt P07585). Put plainly: SPR; Biacore 3000; 10 µg biotinylated decorin on an SA chip; 0-500 nM DbpA injected at 10 µL/min, 25°C; control flow cell with PBS; 1:1 Langmuir model. In general terms: In SPR one partner is held on a chip, and binding of the other changes the refractive index at the surface.
Assay [2] has the same target. As to the kind of experiment: ELISA; quantitative ELISA; 1 µg decorin coated on microtiter wells; 0.03125-2 µM histidine-tagged DbpA added; detected with mouse anti-histidine tag and HRP anti-mouse IgG; KD from a fit of the curve.
Assay [3] has as its target T1, Recombinant human decorin (human, UniProt P07585 31-359, biotin (biotinylated decorin on the SA chip in the SPR experiment; sites not stated)).
T1 construct: Decorin, human, recombinant; Decorin is a proteoglycan that carries dermatan sulfate; Secreted from CHO cells, so probably the mature protein (surmise); source: stably transfected Chinese hamster ovary cells (ATCC CCL 61), purified; gift from MedImmune
As to the kind of experiment: SPR; Biacore 3000; 10 µg biotinylated decorin on an SA chip; 0-500 nM DbpA injected at 10 µL/min, 25°C; control flow cell with PBS; 1:1 Langmuir model. Conditions: both partners purified.

Assay [4] deals with T1, Recombinant human decorin. Put plainly: ELISA; quantitative ELISA; 1 µg decorin coated on microtiter wells; 0.03125-2 µM histidine-tagged DbpA added; detected with mouse anti-histidine tag and HRP anti-mouse IgG; KD from a fit of the curve. Conditions: both partners purified.

T1 sequence (P07585 31-359): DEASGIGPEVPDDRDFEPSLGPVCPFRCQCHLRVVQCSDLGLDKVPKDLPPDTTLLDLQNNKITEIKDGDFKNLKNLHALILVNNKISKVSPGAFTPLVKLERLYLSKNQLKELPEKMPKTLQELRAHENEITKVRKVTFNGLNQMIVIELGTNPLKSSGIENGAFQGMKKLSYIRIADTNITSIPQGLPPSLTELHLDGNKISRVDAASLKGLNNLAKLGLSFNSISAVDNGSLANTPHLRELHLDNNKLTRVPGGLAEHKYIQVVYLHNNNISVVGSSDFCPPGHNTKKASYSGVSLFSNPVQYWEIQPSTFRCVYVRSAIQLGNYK
Recombinant human decorin (human), sequence (P07585 31-359): as above

As for “DbpA297, recombinant histidine-tagged DbpA of B. burgdorferi strain 297 (from UniProt O50917 30-187) (natural protein)”, in assay [1], the equilibrium dissociation constant (Kd) was 300 nM, the koff was determined as 0.1 s⁻¹ and the kon was 351000 M⁻¹ s⁻¹. The Kd in assay [2] worked out at 140 nM.

With “DbpAPBr, recombinant histidine-tagged DbpA of B. garinii strain PBr (natural protein)”, in assay [1], the Kd was 90 nM, the off-rate constant (koff) worked out at 0.13 s⁻¹ and the kon was 1.83e+06 M⁻¹ s⁻¹. Moreover, the Kd in assay [2] amounted to 60 nM.

In the case of “DbpA_(B356), recombinant histidine-tagged DbpA of B. burgdorferi strain B356 (natural protein)”, in assay [1], the Kd turned out to be 840 nM, the off-rate constant (koff) came out at 0.06 s⁻¹ and the kon was determined as 66000 M⁻¹ s⁻¹. The Kd in assay [2] amounted to 950 nM.

“DbpA_(N40-D10/E9), recombinant histidine-tagged DbpA of B. burgdorferi strain N40-D10/E9 (from UniProt O50917 30-191) (natural protein)”: in assay [1], the Kd stood at 710 nM, the off-rate (koff) stood at 0.07 s⁻¹ and the kon is 97000 M⁻¹ s⁻¹. Also, the dissociation constant Kd in assay [2] was found to be 850 nM.

“DbpA_(VS461), recombinant histidine-tagged DbpA of B. afzelii strain VS461 (natural protein)”: in assay [1], the equilibrium dissociation constant (Kd) was determined as 260 nM, the off-rate (koff) was 0.04 s⁻¹ and the kon turned out to be 152000 M⁻¹ s⁻¹. In assay [2], the Kd was 290 nM.

B1: DbpAB31, recombinant histidine-tagged DbpA of B. burgdorferi strain B31 (natural protein)
chain: ATKIRLERSAKDITDEIDAIKKDAALKGVNFDAFKDKKTGSGVSENPFILEAKVRATTVAEKFVIAIEEEATKLKETGSSGEFSAMYDLMFEVSKPLQKLGIQEMTKTVSDAAEENPPTTAQGVLEIAKKMREKLQRVHTKNYCTLKKKENSTFTDEKCKNN
Regarding B1, in assay [3], the dissociation constant Kd worked out at 280 nM, the koff stood at 0.11 s⁻¹ and the association rate constant (kon) worked out at 417000 M⁻¹ s⁻¹. In assay [4], the Kd turned out to be 210 nM.
